# Results: patent US20230272050A1, “BINDING PROTEIN SPECIFIC FOR THE SPIKE PROTEIN OF SEVERE ACUTE RESPIRATORY SYNDROME CORONA VIRUS 2 (SARS-COV-2)” (priority 2020, published 2023)
# Biological target: mutant of SARS CoV-2 S protein (69del, 70del, Y144del, N501Y, A570D, D614G, P681H, T7161, S982A, D1118H) (Severe acute respiratory syndrome coronavirus 2, UniProt P0DTC2, A570D/D1118H/D614G/DEL144-144/N501Y/P681H/S982A/T716I)
substance,measurement,value
212434 (NAAVLDIAQHSATEEIWWLPNLTKQQKVWFIMSLTQDPSVSKEVLGEAQKLNDSQAPK) [compound 212434],"binding affinity to mutant S protein (B.1.1.7), qualitative",showed binding affinity
